Data taken from the nanobody polyreactivity screen of Harvey et al. (2022).

Assay: yeast display, Sf9 membrane polyspecificity reagent, FACS + sequencing; frameworks hold sequencing errors
How it was run: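 Galactose induction of a Saccharomyces cerevisiae BJ5465 synthetic nanobody display library ran 36–48 hours. The cells were then stained for 1 hour at 4 °C with 10% biotinylated, detergent-solubilized Sf9 membrane reagent, pulled down on streptavidin microbeads and FACS-sorted into low and high (top ~1%) gates on expression and reagent-binding fluorescence. Labels for polyreactivity follow the gate of origin.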

| Sequence | polyreactivity (PSR sort gate) |
| --- | --- |
| QVQLVESGGGLVQAGGSLRLSCAASGIIFYDYAMGWYRQAPGKERELVAAISSSGGRTYYADSVKGRFTISRDNAKNTVYLQMNSLNPEDTAFYYCATVSSIYRVRSTSIRYNYWGQGTQVTVSS | high polyreactivity |
| QVQLVESGGGLVQAGGSLRLSCAASGIIFYENAMGWYRQAPGKERELVADITQSGGSTYYADSVKGRFTISRDNAKNTVYLQMNSLKPEDTAVYYCARDGDLWYYKGYGTLFDYWGQGTQVTVSS | low polyreactivity |
| QVQLVESGGGLVQAGGSLRLSCAASGIIFYFYAMGWYRQAPGKERELVAAISRGGSTKYADSVKGRFTISRDNAKNTVYLQMNSLKPEDTAVYYCAATRRRPSEYYYWGPGTQVTVSS | high polyreactivity |
| QVQLVESGGGLVQAGGSLRLSCAASGIIFYFYAMGWYRQAPGKERELVAAITSGGSTNYADSVKGRFTISRDNAKNTVYLQMNSLKPEDTAVYYCAADRDYYFFRYDYWGQGTQVTVSS | low polyreactivity |
| QVQLVESGGGLVQAGGSLRLSCAASGIIFYGYAMGWYRQAPAKERELVAAITYSGGSTYYADSVKGRFTISRDNAKNTVYLQMNSLKPEDTAVYYCDAYDAYSPYLALYDYWVQGTQVTVSS | low polyreactivity |
| QVQLVESGGGLVQAGGSLRLSCAASGIIFYGYAMGWYRQAPGKERELVATISTGGRTNYADSVKGRFTISRDNAKNTVYLQMNSLKPEDTAVYYCAARSFWTYRSGGPSDYYYWGQGTQVTVSS | high polyreactivity |
| QVQLVESGGGLVQAGGSLRLSCAASGIIFYGYVMGWYRQAPGKERELVAAISKSGGSTYYADSVKGRFTISRDIAKNTVYLQMNSLIPEDTAVYYCAAERKSFYRYNYWGQGTQVSVSS | high polyreactivity |
| QVQLVESGGGLVQAGGSLRLSCAASGIIFYGYVMGWYRQAPGKERELVAAISKSGGSTYYADSVKGRFTISRDNAKNTVYLQMNSLKPEETAVYYCAAERKSFYRYNYWGQGTQVTVSS | high polyreactivity |
| QVQLVESGGGLVQAGGSLRLSCAASGIIFYKYAMGWYRQAPGKERELVAAINWSGGSTYYADSVKGRFTISRDNAKNTVYLQMNSLKPEDTAVYYCAADRTDFEYYYWGQGTQVTVSS | low polyreactivity |
| QVQLVESGGGLVQAGGSLRLSCAASGIIFYKYAMGWYRQAPGKERELVAAISYSGTSTYYADSVKGRFTISRDNAKNTVYLQINSLKPEDTAVYYCAAVTYVPRSTNGISLYDYWGQGTQVTVSS | high polyreactivity |
| QVQLVESGGGLVQAGGSLRLSCAASGIIFYKYAMGWYRQAPGKERELVAAITGRGGSTYYADSVKGRFTISRDNAKNTVYLRMNSLKPEDTAVYFCAASQRSGHPSYDYWGQGTQVTVSS | high polyreactivity |
| QVQLVESGGGLVQAGGSLRLSCAASGIIFYLYAMGWYRQAPGKERELVAAISRRGVSTYYADSVKGRFTISRDNAKNTVYLQMNSLKPEDTAVYYCAAAGFGYTGEEYWGQGTQVTVSS | high polyreactivity |
| QVQLVESGGGLVQAGGSLRLSCAASGIIFYLYTMGWYRQAPGKERELVAAISKSGARTYYADSVKGRFTISRDNAKNTVYLQMNSLKPEDTAVYYCAADVSVSGYYYWGQGTQVTVSS | high polyreactivity |
| QVQLVESGGGLVQAGGSLRLSCAASGIIFYLYVMGWYRQAPGKERELVAVISYSGDDTYYADSVKVRFTISRDNAKNTVYLQMNSLKPEDTAVYYCAADSIGYGFDYWGQGTQVTVSS | low polyreactivity |
| QVQLVESGGGLVQAGGSLRLSCAASGIIFYPYTMGWYRQAPGKERELVAAINSGGSTYYADSVKGRFTISRDNAKNTVYLQMNSLKPEDTAVYYCAAEANRYSSGYDYWGQGTQVTVTS | low polyreactivity |
| QVQLVESGGGLVQAGGSLRLSCAASGIIFYRNAMGWYRQAPGKERELVAAISSRGGNTYYADSVKGRFTISRDNEKNTVYLQMNSLKPEDTAVYYCARDSYSLSRTYDSWGQGTQVTVSS | high polyreactivity |
| QVQLVESGGGLVQAGGSLRLSCAASGIIFYRNTMGWYRQAPGKERELVAAITSGGTTYADSVKGRFTISRDNAKNTVYLQMNSLKPEDTAVYYCATDYWYRGFEYEYWGQGTQVTVSS | high polyreactivity |
| QVQLVESGGGLVQAGGSLRLSCAASGIIFYRNTMGWYRQAPGKEWELVAAIRRGGNTYYADSVKGRFTISRDNAKNTVYLQMNSLKPEDTAVYYCAASAGPRASYYYWGQGTQVTVSS | high polyreactivity |
| QVQLVESGGGLVQAGGSLRLSCAASGIIFYRSVMGWYRQAPGKERELVAAITSGGSTNYADSVKGRFTISRDNAKNTVYLQMNSLKPEDTAVYYCAAVPRYRRWKYDYWGQGTQVTVSS | high polyreactivity |
| QVQLVESGGGLVQAGGSLRLSCAASGIIFYRYAMGCYRQAPGKEREFVAAISWSGGSTTYADSVKGRFTISRDNAKNTVYLQMNSLKPEDTAVYYCNADRKYWSLWGPAYDYWGQGTQVTVSS | high polyreactivity |
| QVQLVESGGGLVQAGGSLRLSCAASGIIFYRYAMGWYRQAPGKERELVARITYNGGRTYYADSVKGRFTISRDNAKKTVYLQMNSLKPEDSAVYYCAARGHGGYYYWGQGTQVTVSS | high polyreactivity |
| QVQLVESGGGLVQAGGSLRLSCAASGIIFYSYVMGWYRQAPGKERELVAVISRSGGRTYYADSVKGRFTISRDNAKNTVYLQMISLKPEDTAVYYWAAALGVALNDYWGQGTQVTVSS | high polyreactivity |

| Sequence | polyreactivity (PSR sort gate) |
| --- | --- |
| QVQLVESGGGLVQAGGSLRLSCAASGIIFYTYAMGWYRQAPGKEREFVAGIRWSGSSTYYADSVKGRFTISRDNAKNTVYLQMNSLKPEDTAVYYCATGQPYGPLYSLGYGYWGQGTQVTVSS | high polyreactivity |
| QVQLVESGGGLVQAGGSLRLSCAASGIIFYVYAMGWYRQAPGKERELVAAISSSGGSTNYADSVKGRFTISRDNAKNTVYLQMNSLKPEDTAVYFCAAKWRTRGHTSARGYWGQGTQVTVSS | high polyreactivity |
| QVQLVESGGGLVQAGGSLRLSCAASGIIFYWYAMGWYRQAPGKERELVAAINSGGRTNYADSVKGRFTISRDNAKNTVYLQMNSLKPEDTAVYYCAARANPYVLKYYYWGQGTQVTVSS | high polyreactivity |
| QVQLVESGGGLVQAGGSLRLSCAASGIIFYYNAMGWYREAPGKEREFVASISSRGGSTYYADSVKGRFTISRDNSKNTVYLQMNSVKPEDTAVYYCAAAFDWRRQRYNYWGQGTQVTVTS | high polyreactivity |
| QVQLVESGGGLVQAGGSLRLSCAASGIIFYYNGMGWYRQAPGKERELVAAISGDGSTNYADSVKGRFTISRDNAKNTVYLQMNSLKPEDTAVYYCNADDIFRPRDDLYDYWGQGTQVTVSS | low polyreactivity |
| QVQLVESGGGLVQAGGSLRLSCAASGIIFYYNTMGWYRQAPGKERELVAAISQRGGSTYYADSVKGRFTISRDNAKNTVYLQMNSLKPEDTAVYYCNKLRNSHGFRYDYWGQGTQVTVSS | high polyreactivity |
| QVQLVESGGGLVQAGGSLRLSCAASGIIFYYYAMGWYRQAPGKERELVAAINWTGGDTYYADSVKGRFTISRDNAKNTVYLQMNSLKPEDTAVYYCNADSFYSYIYDYWGQGTQVTVSS | low polyreactivity |
| QVQLVESGGGLVQAGGSLRLSCAASGIIFYYYAMGWYRQAPGKERELVAAISKSGGSTYYADSVKGRFTISRDNAKNTVYLQMNRLKPEDTAVYYCAARGPSWLSYNYWGQGTQVTVSS | high polyreactivity |
| QVQLVESGGGLVQAGGSLRLSCAASGIIFYYYAMGWYRQAPGKERELVAAISWSGGSTYYADSVKGRFTISRDNAKNTVYLQMNSLKPEDTAVYYCAADYTGHIYYYWGQGTQVTVSS | low polyreactivity |
| QVQLVESGGGLVQAGGSLRLSCAASGIIFYYYAMGWYRQAPGKERELVASISRSGTDTYYADSVKGRFTISRDTAKNTVYLQMNSLKPEDTAVYYCAARGYYRWAAYADWRFNYWGQGTQVTVSS | high polyreactivity |
| QVQLVESGGGLVQAGGSLRLSCAASGIIFYYYAMGWYRQAPGKESELVADITYSGGSTYYADSVKGRFTISRDKAKNTVYLQMNSLKPEDTAVYYCAARVTVSHWPYYYDSSDYGGQGTQVTVSS | low polyreactivity |
| QVQLVESGGGLVQAGGSLRLSCAASGIIFYYYTMGWYRQAPGKETELVASITWSGGGSTYYADSVKGRFTISRDNAKNTVYLQMNSLKPEDTAVYYCNADEYYSYDYWGQGTQVTVSS | low polyreactivity |
| QVQLVESGGGLVQAGGSLRLSCAASGIIFYYYVLGWYRQAPGKERELVAAISARGGSTTYADSVKGRFTISRDNAKNTVYLQMISLKPEDTAVYYCAADVSYWRHGYQLSYDYWGQVTQVTVSS | high polyreactivity |
| QVQLVESGGGLVQAGGSLRLSCAASGIIIAYYAMGWYRQAPGKERVLVATISSGGRTKYADSVKGRFTISRDNAKNTVYLQMNSLKPEDTAVYYCNTDRYFRRYYWYDYWGQGTQVTVSS | high polyreactivity |
| QVQLVESGGGLVQAGGSLRLSCAASGIIIDNYTMGWYRQAPGKEREFVAAINKSGGSTYADSVKGRFTISRDNAKNTVYLQMNSLKPEDTAVYYCAAEVDYSYWPEYARKYYYWGQGTQVTVSS | low polyreactivity |
| QVQLVESGGGLVQAGGSLRLSCAASGIIIDRYAMGWYRQAPGKERELVAAISWSGGRTYYADSVKGRFTISRDNAKNTVYLQMNSLKPEDTAVYYCAAKPSVDLDYWGQGTQVTVSS | high polyreactivity |
| QVQLVESGGGLVQAGGSLRLSCAASGIIIRYYGMGWYRQAPGKERELVARIRWTGGSTYYADSVKGRFTISRDNAKNTVYLQMNSLKPEDTAVYYCAAAWWSYKFNRDFDYWGQGTQVTVSS | low polyreactivity |
| QVQLVESGGGLVQAGGSLRLSCAASGIIISINAMGWYRQAPGKERELVAAISRSGGSTNYADSVKGRFTISRDNAKNTVYLQMNSLKPVDTAVDYCATVHRYSVWSHNYWGQGTQVTVSS | high polyreactivity |
| QVQLVESGGGLVQAGGSLRLSCAASGIIISYYAMGWYRQAPGTERELVAAINWNGDSTHYADSVKGRFTISRDNAKNTVYLKMNSLKPEDTAVYYCAAGYTPDTRCHYGTHDMDYWGQGTQVTVSS | low polyreactivity |
| QVQLVESGGGLVQAGGSLRLSCAASGIIIYKYAMGWDRQAPGTERELVAAITSGGGRTYYADSVKGRFTISRDNAKNTVYLQMNSLKPEDTAVYYCAATRPATYAAYDYWGQGTQVTVSS | high polyreactivity |
| QVQLVESGGGLVQAGGSLRLSCAASGIILAGYGMGWYRQAPGKERELVAAINGCGGSTYYADSVKGRFTISRDNAKNTVYLQMNSLKPEDTAVYYCATDWWSGLYYYWGQGTQVTVSS | high polyreactivity |
